This note sets out measurements from patent US20160333110A1 (CHIOME BIOSCIENCE, published 2016).

The target in experiment [1] is T1, recombinant hTACSTD2-Fc-His protein (Creative BioMart) (human, UniProt P09758 27-274, limits assumed).
T1 construct: bought protein; also called hTROP-2 (low-density antigen-coated ELISA); not shown: Fc part of the bought fusion protein; not described; His tag
T1 sequence: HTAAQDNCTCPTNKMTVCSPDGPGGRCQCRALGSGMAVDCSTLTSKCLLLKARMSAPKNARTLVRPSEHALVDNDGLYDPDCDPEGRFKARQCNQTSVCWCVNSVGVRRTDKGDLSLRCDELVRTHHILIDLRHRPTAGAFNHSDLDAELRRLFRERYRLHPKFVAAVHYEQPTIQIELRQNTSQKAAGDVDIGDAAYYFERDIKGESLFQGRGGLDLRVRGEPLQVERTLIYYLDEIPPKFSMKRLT
The experiment can be described thus: low-density antigen-coated ELISA, plate coated with 0.1 µg/mL hTACSTD2-Fc-His. The procedure: Furthermore, antigen affinity was also examined by an ELISA method. ELISA was carried out using an ELISA plate which was coated with the recombinant protein of the hTROP-2 extracellular region as described in Example 3. […] Thereafter, the resultant was washed with a washing buffer (PBS containing 0.05% Tween 20), and a blocking buffer (PBS containing 2% skim milk and 0.05% Tween 20) was then added thereto (200 μl/well) to block it (at room temperature for 1 hour). The resultant was washed with a washing buffer. […] The obtained dilution samples were each added in an amount of 50 μl/well to the above-described ELISA plate (at room temperature for 2 hours). […] After the mixture had been washed with a washing buffer, a TMB (3,3′,5,5′-tetramethylbenzidine: SIGMA) substrate solution was added (50 μl/well) to the resultant to carry out a color reaction. Then, 1 M sulfuric acid (25 μl/well) was added to the reaction product to terminate the reaction. Using Microplate reader Model 550 (BioRad), an absorbance at 450 nm was measured with an absorbance at 655 nm used as a reference.
In general terms: ELISA stands for enzyme-linked immunosorbent assay.

Experiment [2] addresses T2, recombinant protein of the hTROP-2 extracellular region (human, UniProt P09758 27-263).
T2 construct: produced with baculovirus, purified on Ni Sepharose; also called hTROP-2 EC; hTROP-2-EC-His; not shown: C-terminal myc-His tag from pcDNA4/myc-His A
T2 sequence: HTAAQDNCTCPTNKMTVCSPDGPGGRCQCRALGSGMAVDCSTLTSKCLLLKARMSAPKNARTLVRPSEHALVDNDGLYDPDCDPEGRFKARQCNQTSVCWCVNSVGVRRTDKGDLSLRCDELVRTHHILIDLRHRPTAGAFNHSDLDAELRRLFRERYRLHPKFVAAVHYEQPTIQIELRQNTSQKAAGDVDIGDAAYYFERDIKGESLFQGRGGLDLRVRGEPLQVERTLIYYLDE
The experiment in a line: antigen-coated ELISA, plate coated with 0.5 µg/ml hTROP-2 extracellular region. The procedure: Furthermore, antigen affinity was also examined by an ELISA method. ELISA was carried out using an ELISA plate which was coated with the recombinant protein of the hTROP-2 extracellular region as described in Example 3. Specifically, a 96-well plate (BD FALCON) was coated with a 50 μl/well recombinant protein of a hTROP-2 extracellular region that had been diluted with PBS to 0.5 μg/ml (at 4° C. overnight). Thereafter, the resultant was washed with a washing buffer (PBS containing 0.05% Tween 20), and a blocking buffer (PBS containing 2% skim milk and 0.05% Tween 20) was then added thereto (200 μl/well) to block it (at room temperature for 1 hour). The resultant was washed with a washing buffer. […] The obtained dilution samples were each added in an amount of 50 μl/well to the above-described ELISA plate (at room temperature for 2 hours). […] After the mixture had been washed with a washing buffer, a TMB (3,3′,5,5′-tetramethylbenzidine: SIGMA) substrate solution was added (50 μl/well) to the resultant to carry out a color reaction. Then, 1 M sulfuric acid (25 μl/well) was added to the reaction product to terminate the reaction. Using Microplate reader Model 550 (BioRad), an absorbance at 450 nm was measured with an absorbance at 655 nm used as a reference.

Experiment [3] addresses T2, recombinant protein of the hTROP-2 …. The experiment can be described thus: monovalent ELISA: antibody captured by anti-human IgG Fc, hTROP-2 EC titrated in solution, detected with anti-His. The procedure: Thereafter, coating was carried out at 4° C. overnight. Thereafter, the reaction product was washed with a washing buffer (PBS containing 0.05% Tween 20), and a blocking buffer (PBS containing 2% skim milk and 0.05% Tween 20) was then added thereto (200 μL/well) to block it (at room temperature for 1 hour). The resultant was washed with a washing buffer. […] The mixture was left at rest at room temperature for 1 hour, and the reaction product was then washed with a washing buffer. The recombinant protein of the hTROP-2 extracellular region described in Example 3 (hTROP-2 EC) was diluted with an ELISA buffer to prepare samples with a concentration range from 5 μg/mL to a series of three-fold dilutions (10 samples). The thus obtained sample was added in each amount of 50 μL/well to the plate. The mixture was left at rest at room temperature for 1 hour, and the reaction product was then washed with a washing buffer. […] The obtained mixture was left at rest at room temperature for 1 hour, and it was then washed with a washing buffer. […] The obtained mixture was left at rest at room temperature for 1 hour, and it was then washed with a washing buffer. […] Using Microplate reader Model 550 (BioRad), an absorbance at 450 nm was measured with an absorbance at 655 nm used as a reference.

Experiment [4] addresses T1, recombinant hTACSTD2-Fc-His protein …. The experiment in a line: low-density antigen-coated ELISA, plate coated with 0.1 µg/mL hTACSTD2-Fc-His, purified antibodies; HuK5-70 (humanized antibody); low-density ELISA, 0.1 µg/mL hTROP-2 coat.
Experiment [5] shares this target. The experiment can be described thus: low-density antigen-coated ELISA, plate coated with 0.1 µg/mL hTACSTD2-Fc-His, purified antibodies; HuK5-70-2 (R44G mutant); low-density ELISA, 0.1 µg/mL hTROP-2 coat.

Numbering of substitutions follows the chain as printed. Numbers in names are those of the source.

B1: humanized K5-70 antibody (HuK5-70) (antibody, V domains shown)
VH: QVQLVQSGAEVKKPGASVKVSCKASGYTFTIYWINWVRQAPGQRLEWIGNIYPSDSYTNYNQKFKDKATLTVDTSASTAYMELSSLRSEDTAVYYCTRTSMADYWGQGTLVTVSS
VL: EIVLTQSPATLSLSPGERATLSCRASQSIGTSIHWYQQKPGQAPRLLIKYASESISGIPARFSGSGSGTDFTLTISSLEPEDFAVYYCQQSNSWPFTFGQGTKVEIK
notes: human IgG1 / human kappa constant regions from the vectors pFUSE-CHIg-hG1 and pFUSE2-CLIg-hk; also called HuK5-70 antibody
Broadly, the EC50 is the concentration giving half of the maximal effect. Consider B1, for which the concentration giving a half-maximal response (EC50) in experiment [1] is 0.222 µg/mL; in experiment [2], 0.022 µg/mL; in experiment [3], 0.006 µg/mL; in experiment [4], 0.0334 µg/mL. In addition, the “EC50 relative to that of the K5-70 antibody” value in experiment [1] was about 20 times.

B2: HuK5-70-2 antibody (HuK5-70 R44G mutant antibody) (antibody, V domains shown)
VH: B1 VH with R44G
VL: B1 VL
notes: also called HuK5-70 VH R44G; HuK5-70 VH2
Turning to B2, the concentration giving a half-maximal response (EC50) in experiment [5] was determined as 0.0114 µg/mL.
